From the supplement of paper PMC9170038

Test system: MS2 coat protein
Experiment: apparent KD of MS2 coat protein; designed switch direction (-1 OFF switch, 1 ON switch): -1; higher = weaker reporter binding
In short: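 Designed RNA switches with common flanks were made on Illumina chips by stalled E. coli RNA polymerase. Titration with SNAP-549-labelled MS2 coat protein doubled from 0.7 or 1.5 nM up to 3 µM. Apparent KD is each design's median over clusters after curve-fitting normalised fluorescence.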

[1] = input ligand: microRNA oligo, concentration not stated
[2] = Eterna round: R95, input ligand: FMN 200 uM
[3] = Eterna round: R95, input ligand: microRNA oligo, concentration not stated
[4] = Eterna round: R95, input ligand: none

Row | Sequence | apparent KD of MS2 coat protein (input ligand: FMN 200 uM) | apparent KD of MS2 coat protein (input ligand: none) | apparent KD of MS2 coat protein [1] | apparent KD of MS2 coat protein [2] | apparent KD of MS2 coat protein [3] | apparent KD of MS2 coat protein [4]
1 | UGUGCUCUAGGAUAUGCGUAAGCUGAUACGUCAGCAGGUCUACAUGAGGAUCACCCAUGUAGAAGGAGAGUACU [jl-ex2-4.00] (Eterna round: R97, puzzle: Exclusion 2) | 18.6 nM | 20.8 nM |  |  |  | 
2 | UGUGUGAGACAGGAUAUGCCGGUUGUGUUGCUGGUAGAAGGGUCUACAUGAGGAUCACCCAUGUGGCCGGUUGG [Ex6 #80] (Eterna round: R97, puzzle: Exclusion 6) | 19.1 nM | 17.3 nM |  |  |  | 
3 | UGUUCGUCAGGAUAUUCUACUUAUUACAUGAGGAUCACCCAUGUGUAUGUACAAGGGUGUGAAGAAGGGACUUGUC [LRO-Excl5-07-mod A17d by Omei] (Eterna round: R97, puzzle: Exclusion 5) | 331 nM | 1240 nM |  |  |  | 
4 | UGUUGUCGCGCAGGAUAUGAGGAUCACCCAUAUACAGGAUAUGAAAAGAAGGGUCUGAGGAUCACCCAGAAGGGCGGGACAACU [pwkr exNG2 2xF5 2xFMN.27] (Eterna round: R96, puzzle: Exclusion NG 2) | 1340 nM | 135 nM | 99.9 nM |  |  | 
5 | UUAAAAUAUGUAGGAUAUGCGUGGCGAAGCUAUGCAGAAGGACAUGAGGAUCACCCAUGUUCCUGCGUCCGCGUACGGAUGCAA [JL Eng1 1.21 mod 3] (Eterna round: R96, puzzle: Exclusion NG 1) | 14.8 nM | 12.4 nM | 9.15 nM |  |  | 
6 | UUAAAUCAUGUAGGAUAUGCGUGGCGAAGCUAUGCAGAAGGACAUGAGGAUCACCCAUGUGCUGCGGUCUGCGUACAGAUCGCA [JL ENG1 1.06] (Eterna round: R96, puzzle: Exclusion NG 1) | 87.6 nM | 307 nM | 259 nM |  |  | 
7 | UUAAAUCAUGUAGGAUAUGCGUGGCGAAGCUAUGCAGAAGGACAUGAGGAUCACCCAUGUUCUGCGGUCUGCGUACAGAUCGCA [JL ENG1 1.05] (Eterna round: R96, puzzle: Exclusion NG 1) | 502 nM | 42.7 nM | 29.1 nM |  |  | 
8 | UUAAAUCAUGUAGGAUAUGCGUGGCGAAGCUAUGCAGAAGGACAUGAGGAUCACCCAUGUUCUUGCGUCUGCGUACAGAUGCGG [Exclusion NG 1] (Eterna round: R96, puzzle: Exclusion NG 1) | 175 nM | 25.9 nM | 20 nM |  |  | 
9 | UUAACGUGGGCGUCCCACAGCAAGCUUUUUGCUCGUUUAACAUGAGGAUCACCCAUGUCGCUGCGGGAUCCCUAUGA [Abeisat] (puzzle: Sensor v3, turn-off variant 2) |  |  |  | 13.5 nM | 13.1 nM | 11.6 nM
10 | UUAAUGGUUGUGAGGAUAUCGGAUAGAUAGAUAUUCGAGAAGGCACAUGAGGAUCACCCAUGUGUGAUUAGAAA [JR_BMEx4_Sub049] (Eterna round: R97, puzzle: Brourd's mod of Exclusion 4) | 260 nM | 24.6 nM |  |  |  | 
11 | UUAAUUAAUGUGAGGAUAUCUAGAGCCUCGGCUCUAGAGAAGGCACAUGAGGAUCACCCAUGUCUCAAUUAAUU [BmEx4/2-E2] (Eterna round: R97, puzzle: Brourd's mod of Exclusion 4) | 33.9 nM | 23.6 nM |  |  |  | 
12 | UUAAUUCGGAUUCUUGAAAUACAUGAGGAUCACCCAUGUUCACAGGAUAUUGAUUAAGUUAGUAACAAGAAGGGUGUAACAUAA [JR_ExcNG3_Sub035] (Eterna round: R96, puzzle: Exclusion NG 3) | 57.8 nM | 22.9 nM | 17.6 nM |  |  | 
13 | UUAAUUUUAGGAUAUACAUGAGGAUCACCCAUGUGGCGGGCCAUGAUGGAGCGUACCAGUAGAAGGAAGAACAG [Eternabot (L2) Solution 43] (Eterna round: R97, puzzle: Exclusion 3) | 69.2 nM | 73.2 nM |  |  |  | 
14 | UUACGGAUAGAGGAUAUAUUAAGGAAGGUUUCGAUAGAAGGCUAGACAUGAGGAUCACCCAUGUAUAUUGGGAU [JR_Ex6_Sub073] (Eterna round: R97, puzzle: Exclusion 6) | 164 nM | 97.9 nM |  |  |  | 
15 | UUAGCGUAAGUAAGGAUAUGCUGGUCGAAAGACCAGCAGAAGGUACAUGAGGAUCACCCAUGUUGAUUCGUUGC [Mod of JL 13 - Jieux - Brourd's mod of Exclusion 4] (Eterna round: R97, puzzle: Brourd's mod of Exclusion 4) | 284 nM | 39.7 nM |  |  |  | 
16 | UUAGUGUAAGGAUAUCCUAUUACGAAGUAGCAACGGUAGAGGGAGAAGGUACAUGAGGAUCACCCAUGUGUCGC [Eternabot (L2) Solution 38] (Eterna round: R97, puzzle: Exclusion 4) | 26.3 nM | 24.5 nM |  |  |  | 

Row | Sequence | apparent KD of MS2 coat protein (input ligand: FMN 200 uM) | apparent KD of MS2 coat protein (input ligand: none) | apparent KD of MS2 coat protein [1] | apparent KD of MS2 coat protein [2] | apparent KD of MS2 coat protein [3] | apparent KD of MS2 coat protein [4]
17 | UUAUAAACAUAGGAUAUCGAAUAAAUUAUUUAACGAGAAGGAUGAACAUGAGGAUCACCCAUGUGGUAUCAUGG [Mat - Exclusion 6 - JL Mod - D30] (puzzle: Exclusion 6) |  |  |  | 170 nM | 228 nM | 398 nM
18 | UUAUACGCUGAGGAUAUUAUCACUGAGAGGUGAUGAGAAGGCGGUACAUGAGGAUCACCCAUGUCUAUGGGCAG [Ex-6 Malc#22] (puzzle: Exclusion 6) |  |  |  |  | 237 nM | 
19 | UUAUAUAGGUAGGAUAUCGAUUUUAAUUAAUAUCGAGAAGGGUCAACAUGAGGAUCACCCAUGUCAGCAUGUAU [LRO-Excl6-04-Rocketman] (Eterna round: R97, puzzle: Exclusion 6) | 60 nM | 55.1 nM |  |  |  | 
20 | UUAUAUAGUGUGAGGAUAUGCUGGUCCUUGGAUCAGCAGAAGGCACAUGAGGAUCACCCAUGUAGUUAAUUUUA [JL bmx4 3.03] (puzzle: Brourd's mod of Exclusion 4) |  |  |  | 118 nM | 25.2 nM | 29 nM
21 | UUAUCCGCUGAGGAUAUUAUCACUGAGAGGUGAUGAGAAGGCGGUACAUGAGGAUCACCCAUGUCUAUGGGCAG [Ex-6 Malc#23] (puzzle: Exclusion 6) |  |  |  | 584 nM | 228 nM | 864 nM
22 | UUAUUAUAUGUAGGAUAUGCAUAUUAUUAUUAUGCAGAAGGACAUGAGGAUCACCCAUGUAUAUUAUUAUUAUAUAUUAUAUGU [Title] (Eterna round: R96, puzzle: Exclusion NG 1) |  |  | 33.8 nM |  |  | 
23 | UUAUUAUAUGUAGGAUAUGCAUAUUAUUAUUGUGCAGAAGGACAUGAGGAUCACCCAUGUAUAUUAUUAUUAUAUAUUAUAUAU [Title] (Eterna round: R96, puzzle: Exclusion NG 1) |  |  | 26.5 nM |  |  | 
24 | UUAUUAUAUGUAGGAUAUGCAUAUUGUUGUUAUGCAGAAGGACAUGAGGAUCACCCAUGUAUAUUAUUGUUAUAUAUUGUAUAU [Title] (Eterna round: R96, puzzle: Exclusion NG 1) |  |  | 18.2 nM |  |  | 
25 | UUAUUAUAUGUAGGAUAUGCAUAUUGUUGUUAUGCAGAAGGACAUGAGGAUCACCCAUGUAUAUUAUUGUUGUGUAUUAUAUAU [Title] (Eterna round: R96, puzzle: Exclusion NG 1) | 57.1 nM | 33 nM | 29.1 nM |  |  | 
26 | UUAUUUAGGUAGGAUAUCGAUAUUAAUUAUUAUCGAGAAGGGUCUACAUGAGGAUCACCCAUGUUAGCAUGUUU [LRO-Excl6-09-Rocketman] (Eterna round: R97, puzzle: Exclusion 6) | 23.3 nM | 29.3 nM |  |  |  | 
27 | UUCAUGUAAGGAUAUCGUGCAAGUUUCAAAAGAGGCUUGUGCGAGAAGGUACAUGAGGAUCACCCAUGUAGGUU [Omei Ex4 B9] (Eterna round: R97, puzzle: Exclusion 4) | 86.9 nM | 754 nM |  |  |  | 
28 | UUCCGGUGAGGAUAUUGCACGGUGGGAGAGAGCGCCACUGUCAAGAAGGUACAUGAGGAUCACCCAUGUGAGUA [Eternabot (L1) Solution 24] (Eterna round: R97, puzzle: Exclusion 4) | 21.1 nM | 25.1 nM |  |  |  | 
29 | UUCCUACAUGAGGAUCACCCAUGUCAGGAUAUCUCCUCACCGCGAAUGGGCAGUGAAUAGAGAAGGGACAGGAA [Aner] (puzzle: Exclusion 1) |  |  |  |  | 13.5 nM | 
30 | UUCCUCGUUGUGAGGAUAUCGUCCGUGUUUUGUUACGAGAAGGCACAUGAGGAUCACCCAUGUUAUUUGAUUUU [JR_BMOE4_Sub074] (puzzle: Brourd's mod of Exclusion 4) |  |  |  | 83.6 nM | 36.8 nM | 37.9 nM
31 | UUCCUCGUUGUGAGGAUAUCGUCCUAUUUUUGUUACGAGAAGGCACAUGAGGAUCACCCAUGUUACUUGAUGUU [JR_BMOE4_Sub071] (Eterna round: R96, puzzle: Brourd's mod of Exclusion 4) | 188 nM | 26 nM | 21.1 nM |  |  | 
